Positions count from the first letter of the chain named. In names and notes the source's numbering stands.

This is an account of results in patent US20230104769A1 (MABWELL SHANGHAI BIOSCIENCE, published 2023).

First the molecules themselves.
B1: h317 variant antibody, heavy chain D33S (antibody, V domains shown)
VH: EVQLVESGGGLVKPGGSLRLSCAASGFTFSSYSMSWVRQAPGKGLEWVATISGGGSYTYYPDSVKGRFTISRDNAKNSLYLQMNSLRAEDTAVYYCASPDSSGVAYWGQGTLVTVSS
VL: DIVMTQSPLSLPVTPGEPASITCKASQDVETVVAWYLQKPGQSPRLLIYWASTRHTGVPDRFSGSGSGTDFTLKISRVEAEDVGVYYCQQYSRYPWTFGQGTKL
notes: Variant of h317
B2: h317 variant antibody, heavy chain Y32A (antibody, V domains shown)
VH: B1 VH with Y32A, S33D
VL: B1 VL
notes: Variant of h317
B3: h317 variant antibody, heavy chain S56G (antibody, V domains shown)
VH: B1 VH with S33D, S56G
VL: B1 VL
notes: Variant of h317
B4: h317 variant antibody, light chain E30S (antibody, V domains shown)
VH: B1 VH with S33D
VL: B1 VL with E30S
notes: Variant of h317
B5: h317 variant antibody, light chain H55A (antibody, V domains shown)
VH: B1 VH with S33D
VL: B1 VL with H55A
notes: Variant of h317
B6: h317 variant antibody, light chain K24R, T56S and S92N (antibody, V domains shown)
VH: B1 VH with S33D
VL: B1 VL with K24R, T56S, S92N
notes: Variant of h317; also called 24R(CDR1) 56S(CDR2) 92N(CDR3)
B7: h317 variant antibody, heavy chain Y59T (antibody, V domains shown)
VH: B1 VH with S33D, Y59T
VL: B1 VL
notes: Variant of h317
B8: h317 variant antibody, light chain K24R (antibody, V domains shown)
VH: B1 VH with S33D
VL: B1 VL with K24R
notes: Variant of h317
B9: h317 variant antibody, heavy chain D33S and G54S (antibody, V domains shown)
VH: B1 VH with G54S
VL: B1 VL
notes: Variant of h317; also called 33S(CDR1) 54S(CDR2)
B10: h317 variant antibody, light chain H55Q (antibody, V domains shown)
VH: B1 VH with S33D
VL: B1 VL with H55Q
notes: Variant of h317
B11: h317 variant antibody, heavy chain G54S and Y59A (antibody, V domains shown)
VH: B1 VH with S33D, G54S, Y59A
VL: B1 VL
notes: Variant of h317; also called 54S(CDR2) 59A(CDR2)
B12: h317 variant antibody, light chain K24R and S92N (antibody, V domains shown)
VH: B1 VH with S33D
VL: B1 VL with K24R, S92N
notes: Variant of h317; also called 24R(CDR1) 92N(CDR3)
B13: h317 variant antibody, heavy chain G54D (antibody, V domains shown)
VH: B1 VH with S33D, G54D
VL: B1 VL
notes: Variant of h317
B14: h317 variant antibody, heavy chain D33Y (antibody, V domains shown)
VH: B1 VH with S33Y
VL: B1 VL
notes: Variant of h317
B15: h317 variant antibody, heavy chain S52W (antibody, V domains shown)
VH: B1 VH with S33D, S52W
VL: B1 VL
notes: Variant of h317
B16: h317 variant antibody, heavy chain S101A (antibody, V domains shown)
VH: B1 VH with S33D, S101A
VL: B1 VL
notes: Variant of h317
B17: h317 variant antibody, heavy chain S31D (antibody, V domains shown)
VH: B1 VH with S31D, S33D
VL: B1 VL
notes: Variant of h317
B18: h317 variant antibody, heavy chain D100Y (antibody, V domains shown)
VH: B1 VH with S33D, D100Y
VL: B1 VL
notes: Variant of h317
B19: h317 variant antibody, heavy chain D100E (antibody, V domains shown)
VH: B1 VH with S33D, D100E
VL: B1 VL
notes: Variant of h317
B20: h317 variant antibody, heavy chain Y106T (antibody, V domains shown)
VH: B1 VH with S33D, Y106T
VL: B1 VL
notes: Variant of h317; also called YI06T
B21: h317 variant antibody, light chain K24R, T56S and S92N with heavy chain G54S and Y59A (antibody, V domains shown)
VH: B1 VH with S33D, G54S, Y59A
VL: B1 VL with K24R, T56S, S92N
notes: Variant of h317; also called L- 24R(CDR1) 56S(CDR2) 92N(CDR3); H- 54S(CDR2) 59A(CDR2)
B22: h317 variant antibody, heavy chain Y32N (antibody, V domains shown)
VH: B1 VH with Y32N, S33D
VL: B1 VL
notes: Variant of h317
B23: h317 variant antibody, light chain K24R and T56S (antibody, V domains shown)
VH: B1 VH with S33D
VL: B1 VL with K24R, T56S
notes: Variant of h317; also called 24R(CDR1) 56(2)
B24: h317 variant antibody, heavy chain G54S (antibody, V domains shown)
VH: B1 VH with S33D, G54S
VL: B1 VL
notes: Variant of h317
B25: h317 variant antibody, heavy chain Y59A (antibody, V domains shown)
VH: B1 VH with S33D, Y59A
VL: B1 VL
notes: Variant of h317
B26: h317 variant antibody, heavy chain G55S (antibody, V domains shown)
VH: B1 VH with S33D, G55S
VL: B1 VL
notes: Variant of h317
B27: h317 variant antibody, heavy chain Y57T (antibody, V domains shown)
VH: B1 VH with S33D, Y57T
VL: B1 VL
notes: Variant of h317
B28: h317 variant antibody, heavy chain D33S and Y59A (antibody, V domains shown)
VH: B1 VH with Y59A
VL: B1 VL
notes: Variant of h317; also called 33S(CDRH 59A(CDR2))
B29: h317 variant antibody, heavy chain S52K (antibody, V domains shown)
VH: B1 VH with S33D, S52K
VL: B1 VL
notes: Variant of h317
B30: h317 variant antibody, heavy chain G53Y (antibody, V domains shown)
VH: B1 VH with S33D, G53Y
VL: B1 VL
notes: Variant of h317
B31: h317 variant antibody, heavy chain G53S (antibody, V domains shown)
VH: B1 VH with S33D, G53S
VL: B1 VL
notes: Variant of h317
B32: h317 variant antibody, light chain K24R and Y94F (antibody, V domains shown)
VH: B1 VH with S33D
VL: B1 VL with K24R, Y94F
notes: Variant of h317; also called 24R(CDR1) 94F(CDR3)
B33: h317 variant antibody, light chain K24R, T56S and S92N with heavy chain D33S and G54S (antibody, V domains shown)
VH: B1 VH with G54S
VL: B1 VL with K24R, T56S, S92N
notes: Variant of h317; also called L- 24R(CDR1) 56S(CDR2) 92N(CDR3); H- 33S(CDR1) 54S(CDR2)

For the assay, the target named is T1, recombinant human PD-1 protein (NCBI accession No.: NP_005009.2, 21aa-167aa) (human, UniProt Q15116 21-167).
T1 construct: range 21-167; also called recombinant human PD-1 extracellular domain protein; PD-1-ECD
T1 sequence (Q15116 21-167 limits assumed, form in doubt): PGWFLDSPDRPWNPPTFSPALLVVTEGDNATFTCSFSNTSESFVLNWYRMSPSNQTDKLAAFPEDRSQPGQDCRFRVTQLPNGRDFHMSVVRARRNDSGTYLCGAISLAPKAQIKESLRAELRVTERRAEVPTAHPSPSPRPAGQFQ
Put plainly: BLI Octet QKe, antibody on the sensor, single 100 nM PD-1. How it is done: Determination of the binding kinetics: the affinity of the antibody was determined with Octet QKe system from Fortebio using an assay of capturing biotin-labeled antibody with streptavidin. […] Both the binding and dissociating were conducted for 300 s.
The comparison of affinity between the variant antibodies and the parent antibody was performed using Octet QKe system supplied by Fortebio.
In general terms: Biolayer interferometry detects binding as a change in optical thickness at a sensor tip.
By Kd is commonly meant the free concentration of one partner at which half of the binding sites on the other are occupied at equilibrium, for simple one-to-one binding. For B1, the dissociation constant (Kd) was 2.89 nM. Then B2, with 6.83 nM; and B3, with 148 nM; and B4, with 14.2 nM.

As to B5, the Kd stood at 172 nM.

With B6, the Kd amounted to 2.91 nM. In the case of B7, the Kd was 18.9 nM.

With B8, the Kd was determined as 1.02 nM. For B9 the value was 3.12 nM; for B10, 14.2 nM; for B11, 2.68 nM. With B12, the Kd is 4.17 nM.

For B13, the Kd is 29.3 nM. On to B14, for which the Kd is 236 nM. As to B15, the Kd worked out at 39.4 nM.

As for B16, the Kd was found to be 16.3 nM. Regarding B17, the Kd was 5.12 nM. With B18, the dissociation constant Kd turned out to be 8.23 nM. In the case of B19, the Kd was found to be 74.4 nM. As for B20, the Kd is 294 nM. For B21, the Kd was determined as 2.88 nM.

Consider B22, for which the Kd was found to be 18.1 nM. Consider B23, for which the Kd is 3.23 nM. On to B24, for which the Kd was determined as 1.32 nM. For B25, the Kd stood at 3.29 nM. For B26 the value was 9.09 nM; for B27, 61.2 nM; for B28, 3.96 nM. For the molecule B29, the Kd was determined as 27.2 nM.

B30: the Kd was 10.3 nM.

For B31, the Kd came to 5.53 nM. As to B32, the Kd is 5.32 nM.

As to B33, the Kd was determined as 3.38 nM.
